The assay addresses VEGF (VEGF 1-165 aa, R&D Systems 293-VE-010) (UniProt P15692 27-191). Nature of the assay: Direct bind ELISA, VEGF coated on plate.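 Further: ELISA screening of antibodies for binding to the plate-coated target antigen.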 A general note: ELISA stands for enzyme-linked immunosorbent assay.

What is called EC50 is the concentration that produces a half-maximal response. Low readings indicate an effect from little substance, high ones a need for much substance.

VEGF (VEGF 1-165 aa, R&D Systems 293-VE-010), sequence (P15692 other isoform, or with tags, fused parts or gaps limits assumed): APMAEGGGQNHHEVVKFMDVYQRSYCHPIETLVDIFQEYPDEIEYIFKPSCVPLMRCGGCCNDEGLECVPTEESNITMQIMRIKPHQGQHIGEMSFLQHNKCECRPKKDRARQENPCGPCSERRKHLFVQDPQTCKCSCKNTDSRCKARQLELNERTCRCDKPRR

B1: DVD446 (bispecific antibody, IgG1)
VH: EVQLVESGGGLVQPGGSLRLSCAASGFTINASWIHWVRQAPGKGLEWVGAIYPYSGYTNYADSVKGRFTISADTSKNTAYLQMNSLRAEDTAVYYCARWGHSTSPWAMDYWGQGTLVTVSSASTKGPQVQLVQSGAEVKKPGASVKISCKASGYSFTAYYIHWVKQAPGQGLEWIGYISSYNGATNYNQKFKGRVTFTTDTSTSTAYMELRSLRSDDTAVYYCARDYDYDVGMDYWGQGTLVTVSS
VL: DIQMTQSPSSLSASVGDRVTITCRASQVIRRSLAWYQQKPGKAPKLLIYAASNLASGVPSRFSGSGSGTDFTLTISSLQPEDFATYYCQQSNTSPLTFGQGTKVEIKRTVAAPDIVMTQSPDSLAVSLGERATISCRASESVDNYGISFMKWFQQKPGQPPKLLIYAASNQGSGVPDRFSGSGSGTDFTLTISSLQAEDVAVYYCQQSKEVPWTFGGGTKVEIKR
notes: DVD-Ig, outer AB071 / inner AB069; HC linker short, LC linker short; also called DVD446H; DVD446L
In turn, B1 gave a concentration giving a half-maximal response (EC50) of 14.4 nM.

B2: DVD458 (bispecific antibody, IgG1)
VH: EVQLVESGGGLVQPGGSLRLSCAASGFTINASWIHWVRQAPGKGLEWVGAIYPYSGYTNYADSVKGRFTISADTSKNTAYLQMNSLRAEDTAVYYCARWGHSTSPWAMDYWGQGTLVTVSSASTKGPSVFPLAPQVQLVQSGAEVKKPGASVKISCKASGYSFTAYYIHWVKQAPGQGLEWIGYISSYNGATNYNQKFKGRVTFTTDTSTSTAYMELRSLRSDDTAVYYCARDYDYDVGMDYWGQGTLVTVSS
VL: B1 VL
notes: DVD-Ig, outer AB071 / inner AB069; HC linker long, LC linker short; also called DVD458H; DVD458L
B2 displayed an EC50 of 21.5 nM.

B3: DVD464 (bispecific antibody, IgG1)
VH: B1 VH
VL: DIQMTQSPSSLSASVGDRVTITCRASQVIRRSLAWYQQKPGKAPKLLIYAASNLASGVPSRFSGSGSGTDFTLTISSLQPEDFATYYCQQSNTSPLTFGQGTKVEIKRTVAAPSVFIFPPDIVMTQSPDSLAVSLGERATISCRASESVDNYGISFMKWFQQKPGQPPKLLIYAASNQGSGVPDRFSGSGSGTDFTLTISSLQAEDVAVYYCQQSKEVPWTFGGGTKVEIKR
notes: DVD-Ig, outer AB071 / inner AB069; HC linker short, LC linker long; also called DVD464H; DVD464L
B3 yielded an EC50 of 19.3 nM.

B4: DVD445 (bispecific antibody, IgG1)
VH: QVQLVQSGAEVKKPGASVKISCKASGYSFTAYYIHWVKQAPGQGLEWIGYISSYNGATNYNQKFKGRVTFTTDTSTSTAYMELRSLRSDDTAVYYCARDYDYDVGMDYWGQGTLVTVSSASTKGPEVQLVESGGGLVQPGGSLRLSCAASGFTINASWIHWVRQAPGKGLEWVGAIYPYSGYTNYADSVKGRFTISADTSKNTAYLQMNSLRAEDTAVYYCARWGHSTSPWAMDYWGQGTLVTVSS
VL: DIVMTQSPDSLAVSLGERATISCRASESVDNYGISFMKWFQQKPGQPPKLLIYAASNQGSGVPDRFSGSGSGTDFTLTISSLQAEDVAVYYCQQSKEVPWTFGGGTKVEIKRTVAAPDIQMTQSPSSLSASVGDRVTITCRASQVIRRSLAWYQQKPGKAPKLLIYAASNLASGVPSRFSGSGSGTDFTLTISSLQPEDFATYYCQQSNTSPLTFGQGTKVEIKR
notes: DVD-Ig, outer AB069 / inner AB071; HC linker short, LC linker short; also called DVD445H; DVD445L
B4 showed a 50% effective concentration (EC50) of 14500 nM.

B5: DVD457 (bispecific antibody, IgG1)
VH: QVQLVQSGAEVKKPGASVKISCKASGYSFTAYYIHWVKQAPGQGLEWIGYISSYNGATNYNQKFKGRVTFTTDTSTSTAYMELRSLRSDDTAVYYCARDYDYDVGMDYWGQGTLVTVSSASTKGPSVFPLAPEVQLVESGGGLVQPGGSLRLSCAASGFTINASWIHWVRQAPGKGLEWVGAIYPYSGYTNYADSVKGRFTISADTSKNTAYLQMNSLRAEDTAVYYCARWGHSTSPWAMDYWGQGTLVTVSS
VL: B4 VL
notes: DVD-Ig, outer AB069 / inner AB071; HC linker long, LC linker short; also called DVD457H; DVD457L
As for B5, a half-maximal effect (EC50) was put at 1480 nM.

B6: DVD463 (bispecific antibody, IgG1)
VH: B4 VH
VL: DIVMTQSPDSLAVSLGERATISCRASESVDNYGISFMKWFQQKPGQPPKLLIYAASNQGSGVPDRFSGSGSGTDFTLTISSLQAEDVAVYYCQQSKEVPWTFGGGTKVEIKRTVAAPSVFIFPPDIQMTQSPSSLSASVGDRVTITCRASQVIRRSLAWYQQKPGKAPKLLIYAASNLASGVPSRFSGSGSGTDFTLTISSLQPEDFATYYCQQSNTSPLTFGQGTKVEIKR
notes: DVD-Ig, outer AB069 / inner AB071; HC linker short, LC linker long; also called DVD463H; DVD463L
Molecule B6 yielded a half-maximal effective concentration (EC50) of 1730 nM.

B7: DVD452 (bispecific antibody, IgG1)
VH: B2 VH
VL: B3 VL
notes: DVD-Ig, outer AB071 / inner AB069; HC linker long, LC linker long; also called DVD452H; DVD452L
On to B7, for which the EC50 came to 17.8 nM.

B8: DVD478 (bispecific antibody, IgG1)
VH: EVQLVESGGGLVQPGGSLRLSCAASGFTISDYWIHWVRQAPGKGLEWVAGITPAGGYTYYADSVKGRFTISADTSKNTAYLQMNSLRAEDTAVYYCARFVFFLPYAMDYWGQGTLVTVSSASTKGPSVFPLAPEVQLVESGGGLVQPGGSLRLSCAASGFTFTDNWISWVRQAPGKGLEWVGYISPNSGFTYYADSVKGRFTISADTSKNTAYLQMNSLRAEDTAVYYCARDNFGGYFDYWGQGTLVTVSS
VL: DIQMTQSPSSLSASVGDRVTITCRASQDVSTAVAWYQQKPGKAPKLLIYSASFLYSGVPSRFSGSGSGTDFTLTISSLQPEDFATYYCQQSYTTPPTFGQGTKVEIKRTVAAPDIQMTQSPSSLSASVGDRVTITCRASQDVSTAVAWYQQKPGKAPKLLIYSASFLYSGVPSRFSGSGSGTDFTLTISSLQPEDFATTYYCQQSYTGTVTFGQGTKVEIKR
notes: HC linker long, LC linker short; also called DVD478H; DVD478L
B8 had a 50% effective concentration (EC50) of 2.72 nM.

B9: DVD484 (bispecific antibody, IgG1)
VH: EVQLVESGGGLVQPGGSLRLSCAASGFTISDYWIHWVRQAPGKGLEWVAGITPAGGYTYYADSVKGRFTISADTSKNTAYLQMNSLRAEDTAVYYCARFVFFLPYAMDYWGQGTLVTVSSASTKGPEVQLVESGGGLVQPGGSLRLSCAASGFTFTDNWISWVRQAPGKGLEWVGYISPNSGFTYYADSVKGRFTISADTSKNTAYLQMNSLRAEDTAVYYCARDNFGGYFDYWGQGTLVTVSS
VL: DIQMTQSPSSLSASVGDRVTITCRASQDVSTAVAWYQQKPGKAPKLLIYSASFLYSGVPSRFSGSGSGTDFTLTISSLQPEDFATYYCQQSYTTPPTFGQGTKVEIKRTVAAPSVFIFPPDIQMTQSPSSLSASVGDRVTITCRASQDVSTAVAWYQQKPGKAPKLLIYSASFLYSGVPSRFSGSGSGTDFTLTISSLQPEDFATTYYCQQSYTGTVTFGQGTKVEIKR
notes: HC linker short, LC linker long; also called DVD484H; DVD484L
The molecule B9 yielded an EC50 of 4.84 nM.

B10: DVD451 (bispecific antibody, IgG1)
VH: B5 VH
VL: B6 VL
notes: DVD-Ig, outer AB069 / inner AB071; HC linker long, LC linker long; also called DVD451H; DVD451L
As for B10, the midpoint of the response, the EC50, lay at 2400 nM.

B11: DVD477 (bispecific antibody, IgG1)
VH: EVQLVESGGGLVQPGGSLRLSCAASGFTFTDNWISWVRQAPGKGLEWVGYISPNSGFTYYADSVKGRFTISADTSKNTAYLQMNSLRAEDTAVYYCARDNFGGYFDYWGQGTLVTVSSASTKGPSVFPLAPEVQLVESGGGLVQPGGSLRLSCAASGFTISDYWIHWVRQAPGKGLEWVAGITPAGGYTYYADSVKGRFTISADTSKNTAYLQMNSLRAEDTAVYYCARFVFFLPYAMDYWGQGTLVTVSS
VL: DIQMTQSPSSLSASVGDRVTITCRASQDVSTAVAWYQQKPGKAPKLLIYSASFLYSGVPSRFSGSGSGTDFTLTISSLQPEDFATTYYCQQSYTGTVTFGQGTKVEIKRTVAAPDIQMTQSPSSLSASVGDRVTITCRASQDVSTAVAWYQQKPGKAPKLLIYSASFLYSGVPSRFSGSGSGTDFTLTISSLQPEDFATYYCQQSYTTPPTFGQGTKVEIKR
notes: HC linker long, LC linker short; also called DVD477H; DVD477L
In the case of B11, a half-maximal response (EC50) required 41.7 nM.

B12: DVD483 (bispecific antibody, IgG1)
VH: EVQLVESGGGLVQPGGSLRLSCAASGFTFTDNWISWVRQAPGKGLEWVGYISPNSGFTYYADSVKGRFTISADTSKNTAYLQMNSLRAEDTAVYYCARDNFGGYFDYWGQGTLVTVSSASTKGPEVQLVESGGGLVQPGGSLRLSCAASGFTISDYWIHWVRQAPGKGLEWVAGITPAGGYTYYADSVKGRFTISADTSKNTAYLQMNSLRAEDTAVYYCARFVFFLPYAMDYWGQGTLVTVSS
VL: DIQMTQSPSSLSASVGDRVTITCRASQDVSTAVAWYQQKPGKAPKLLIYSASFLYSGVPSRFSGSGSGTDFTLTISSLQPEDFATTYYCQQSYTGTVTFGQGTKVEIKRTVAAPSVFIFPPDIQMTQSPSSLSASVGDRVTITCRASQDVSTAVAWYQQKPGKAPKLLIYSASFLYSGVPSRFSGSGSGTDFTLTISSLQPEDFATYYCQQSYTTPPTFGQGTKVEIKR
notes: HC linker short, LC linker long; also called DVD483H; DVD483L
On to B12, for which the midpoint of the response, the EC50, lay at 46.1 nM.

Values taken from patent US20100260668A1 (published 2010).
